B1: NCI-CoV-S4A9 (VNAR)
VNAR: ARVDQTPRSVTKETGESLTINCVLRDASYALGSTCWYRKKSGSTNEESISKGGRYVETVNSGSKSFSLRINDLTVEDGGTYRCGVQSRWGAVPKLCSNYAACGDGTAVTVN
B2: NCI-CoV-CG2D11 (VHH)
VHH: AVQLVDSGGGSVQAGGSLRLSCAGSAFTYSSYCMGWFRQAPGKEREAVAAINSGTSSTYYADSVKGRFTVSQDNANNTVYLLMISLKPEDTAIYICAALVAPDYDDYDVAAPDNFDYWGQGTQVTVSS
B3: NCI-CoV-CG2G2 (VHH)
VHH: AVQLVESGGGSVPPGGSLTLSCTVSDNIFRTYAVGWFRQAPEKRCQWIATLNADESTEYNVAVTGRFTISRDNSGRSVYLQMDNLNSEDTAIYYCASLARKWSCHDSWGRGTQVTVSS
B4: NCI-CoV-CL3H4 (VHH)
VHH: DVQLVESGGGAVKPGGSLTLTCTVQEGSRNCVGWFRQGSGKDRQAVAMINGNGGTTNYDDRVKGRFQISRDGSLVHLRMNDVKLGDTDIYYCRQGQTYDCWGGTWTDSGWGQGTQVTVSS
B5: NCI-CoV-CLA2 (VHH)
VHH: QVQLVESGGGSVQPGGSLRLSCAVSGYTSSSYCFGWFRQAPGKDREGIIAMEPGNTYTAGAVKGRFTISRDNAKNMVYLQMNSLKPDDTAMYYCAASPYPGTWLNPDLFDTWGQGTQVTVSS
B6: NCI-CoV-S2A9 (VNAR)
VNAR: ARVDQTPRSVTKETGESLTINCVLRDASYALGRTCWYRKKSGSTNEESISKGGRYVETVNSGSKSFSLRINDLTVEDGGTYRCGVSTPWSCDYGPLCFYAACGDGTVVTVN
B7: NCI-CoV-S2G8 (VNAR)
VNAR: ARVDQTPQTITKETGESLTINCVLRDSNCPLSNTYWYRKKSGSTNEESISKGGRYVETVNSGSKSFSLRINDLTVEDSGTYRCKVRTHWSICWEMGLEPNYDVYGGGTVVTVN
B8: NCI-CoV-CGH3 (VHH)
VHH: AVQLVESGGGLVQPGGSLRLSCAASGFTFSSYAMGWVRQAPGKGLEWISAINSGGDIRYYADSVKGRFTISRDNAKNTLYLQMNSLKPEDTAVYYCATDDEILSYGLGTSFDYWGQGTQVTVSS
B9: NCI-CoV-CGF10 (VHH)
VHH: AVQLVESGGGLVQPGGSLRLSCAASGFTFSSYGMHWVRQAPGKGLERVAGINWDGSNSYYTETVKGRFTISRDNAKNTAYLQMNSLKPEDTAMYYCRTLILDSDCDPGSTYRYAWGQGTQVTVSS
B10: NCI-CoV-S3A10 (VNAR)
VNAR: ARVDQTPRSVTKETGESLTINCVLRDASYALGSTCWYRKKSGSTNEESISKGGRYVETVNSGSKSFSLRINDLTVEDGGTYRCGRIQNTKAVLLPCVYAACGDGTVVTVN

Key:
[1] = target: T1, SARS-CoV-2 spike protein on pseudovirus (SARS-CoV-2, UniProt P0DTC2 14-1273); assay: cell-based or functional assay
BSA [2] = target: T2, BSA (bovine, UniProt P02769); assay: Protein ELISA, antigen coated, HRP-anti-Flag detection, OD450
T2 construct: also called bovine serum albumin

[3] = target: T1, SARS-CoV-2 spike protein on pseudovirus; assay: cell-based or functional assay; remark: listed apart in the source
[4] = target: T1, SARS-CoV-2 spike protein on pseudovirus; assay: cell-based or functional assay; remark: listed apart in the source
[5] = target: SARS-CoV-1 spike protein on pseudovirus (SARS-CoV-1, UniProt P59594 14-1255); assay: cell-based or functional assay
BSA [6] = target: T2, BSA; assay: Protein ELISA, antigen coated, HRP-anti-Flag detection, absorbance 450 nm
BSA [7] = target: T2, BSA; assay: as above; remark: listed apart in the source
A431-SARS-CoV-S = assay: Flow cytometry on A431 cells expressing SARS-CoV spike, anti-FLAG-APC detection

T2 sequence (P02769 25-607 limits assumed): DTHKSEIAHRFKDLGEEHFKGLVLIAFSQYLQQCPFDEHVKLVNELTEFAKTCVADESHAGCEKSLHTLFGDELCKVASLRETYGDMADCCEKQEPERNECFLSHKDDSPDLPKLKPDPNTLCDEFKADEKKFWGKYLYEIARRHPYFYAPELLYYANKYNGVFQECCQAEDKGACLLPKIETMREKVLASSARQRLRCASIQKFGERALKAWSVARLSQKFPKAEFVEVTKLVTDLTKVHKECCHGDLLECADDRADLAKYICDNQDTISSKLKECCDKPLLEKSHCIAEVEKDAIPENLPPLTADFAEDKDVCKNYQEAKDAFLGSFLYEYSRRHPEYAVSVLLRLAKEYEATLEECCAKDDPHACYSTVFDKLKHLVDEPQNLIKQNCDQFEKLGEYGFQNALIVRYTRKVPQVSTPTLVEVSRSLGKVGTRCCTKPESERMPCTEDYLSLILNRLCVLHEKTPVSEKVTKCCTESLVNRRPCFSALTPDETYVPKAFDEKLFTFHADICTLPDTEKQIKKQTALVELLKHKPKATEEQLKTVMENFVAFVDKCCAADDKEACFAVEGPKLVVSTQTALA

Binder	Neutralizing Power, SARS-CoV-2 Pseudovirus Neutralization Assay [1] [%]	binding result (A431-SARS-CoV-S)	further results
B1	30		
B2	40		
B3	50		binding result (BSA [2]): no binding (tested: 10 µg/ml)
B4	30		
B5	45		
B6	90		IC50, neutralization of the original strain of SARS-CoV-2 pseudovirus [3]: 1380 nM; IC50, pseudovirus neutralization (luciferase, 293-hACE2 cells) [3]: 1290 nM; IC50 for neutralizing pseudovirus [4]: 4.34 µM; IC50 for neutralizing pseudovirus [5]: 49.3 µM; binding result (BSA [6]): no binding (tested: 10 µg/ml)
B7	50	binds	binding result (BSA [7]): no binding (tested: 10 µg/ml)
B8	30	no binding	
B9	20	no binding	
B10	60		
